B1: FKBP-125: FKBP13 DRD Q72R, Q84E, A117W, D62S; SEQ ID NO: 75 (protein)
chain: HCPIKSRKGDVLHMHYTGKLESGTEFDSSLPRNQPFVFSLGTGEVIKGWDQGLLGMCEGEKRKLVIPSELGYGERGWPPKIPGGATLVFEVELLKIER
modifications: Description of sequence: FKBP13-AcGFP-mCherry Fusion; Construct Name: FKBP-125; FKBP13 DRD in Construct : FKBP13 (mutated to match FKBP12 active site Q72R Q84E A117W) (DRD D62S)
B2: FKBP-137: FKBP13 DRD Q72R, Q84E, A117W, P75L; SEQ ID NO: 87 (protein)
chain: HCPIKSRKGDVLHMHYTGKLEDGTEFDSSLPRNQLFVFSLGTGEVIKGWDQGLLGMCEGEKRKLVIPSELGYGERGWPPKIPGGATLVFEVELLKIER
modifications: Description of sequence: FKBP13-AcGFP-mCherry Fusion; Construct Name: FKBP-137; FKBP13 DRD in Construct : FKBP13 (mutated to match FKBP12 active site Q72R Q84E A117W) (DRD P75L)
B3: FKBP-128: FKBP13 DRD Q72R, Q84E, A117W, H53L; SEQ ID NO: 78 (protein)
chain: HCPIKSRKGDVLLMHYTGKLEDGTEFDSSLPRNQPFVFSLGTGEVIKGWDQGLLGMCEGEKRKLVIPSELGYGERGWPPKIPGGATLVFEVELLKIER
modifications: Description of sequence: FKBP13-AcGFP-mCherry Fusion; Construct Name: FKBP-128; FKBP13 DRD in Construct : FKBP13 (mutated to match FKBP12 active site Q72R Q84E A117W) (DRD H53L)
B4: FKBP-135: FKBP13 DRD Q72R, Q84E, A117W, E61Y; SEQ ID NO: 85 (protein)
chain: HCPIKSRKGDVLHMHYTGKLYDGTEFDSSLPRNQPFVFSLGTGEVIKGWDQGLLGMCEGEKRKLVIPSELGYGERGWPPKIPGGATLVFEVELLKIER
modifications: Description of sequence: FKBP13-AcGFP-mCherry Fusion; Construct Name: FKBP-135; FKBP13 DRD in Construct : FKBP13 (mutated to match FKBP12 active site Q72R Q84E A117W) (DRD E61Y)
B5: FKBP-133: FKBP13 DRD Q72R, Q84E, A117W, G83T; SEQ ID NO: 83 (protein)
chain: HCPIKSRKGDVLHMHYTGKLEDGTEFDSSLPRNQPFVFSLGTTEVIKGWDQGLLGMCEGEKRKLVIPSELGYGERGWPPKIPGGATLVFEVELLKIER
modifications: Description of sequence: FKBP13-AcGFP-mCherry Fusion; Construct Name: FKBP-133; FKBP13 DRD in Construct : FKBP13 (mutated to match FKBP12 active site Q72R Q84E A117W) (DRD G83T)
B6: FKBP-136: FKBP13 DRD Q72R, Q84E, A117W, S108M; SEQ ID NO: 86 (protein)
chain: HCPIKSRKGDVLHMHYTGKLEDGTEFDSSLPRNQPFVFSLGTGEVIKGWDQGLLGMCEGEKRKLVIPMELGYGERGWPPKIPGGATLVFEVELLKIER
modifications: Description of sequence: FKBP13-AcGFP-mCherry Fusion; Construct Name: FKBP-136; FKBP13 DRD in Construct : FKBP13 (mutated to match FKBP12 active site Q72R Q84E A117W) (DRD S108M)
B7: FKBP-130: FKBP13 DRD Q72R, Q84E, A117W, P107K; SEQ ID NO: 80 (protein)
chain: HCPIKSRKGDVLHMHYTGKLEDGTEFDSSLPRNQPFVFSLGTGEVIKGWDQGLLGMCEGEKRKLVIKSELGYGERGWPPKIPGGATLVFEVELLKIER
modifications: Description of sequence: FKBP13-AcGFP-mCherry Fusion; Construct Name: FKBP-130; FKBP13 DRD in Construct : FKBP13 (mutated to match FKBP12 active site Q72R Q84E A117W) (DRD P107K)
B8: FKBP-127: FKBP13 DRD Q72R, Q84E, A117W, F76Q; SEQ ID NO: 77 (protein)
chain: HCPIKSRKGDVLHMHYTGKLEDGTEFDSSLPRNQPQVFSLGTGEVIKGWDQGLLGMCEGEKRKLVIPSELGYGERGWPPKIPGGATLVFEVELLKIER
modifications: Description of sequence: FKBP13-AcGFP-mCherry Fusion; Construct Name: FKBP-127; FKBP13 DRD in Construct : FKBP13 (mutated to match FKBP12 active site Q72R Q84E A117W) (DRD F76Q)
B9: FKBP-126: FKBP13 DRD Q72R, Q84E, A117H, D62S; SEQ ID NO: 76 (protein)
chain: HCPIKSRKGDVLHMHYTGKLESGTEFDSSLPRNQPFVFSLGTGEVIKGWDQGLLGMCEGEKRKLVIPSELGYGERGHPPKIPGGATLVFEVELLKIER
modifications: Description of sequence: FKBP13-AcGFP-mCherry Fusion; Construct Name: FKBP-126; FKBP13 DRD in Construct : FKBP13 (mutated to match FKBP12 active site Q72R Q84E A117H) (DRD D62S)
B10: FKBP-138: FKBP13 DRD Q72R, Q84E, A117W, G124R; SEQ ID NO: 88 (protein)
chain: HCPIKSRKGDVLHMHYTGKLEDGTEFDSSLPRNQPFVFSLGTGEVIKGWDQGLLGMCEGEKRKLVIPSELGYGERGWPPKIPGRATLVFEVELLKIER
modifications: Description of sequence: FKBP13-AcGFP-mCherry Fusion; Construct Name: FKBP-138; FKBP13 DRD in Construct : FKBP13 (mutated to match FKBP12 active site Q72R Q84E A117W) (DRD G124R)
B11: FKBP-129: FKBP13 DRD Q72R, Q84E, A117W, E98L; SEQ ID NO: 79 (protein)
chain: HCPIKSRKGDVLHMHYTGKLEDGTEFDSSLPRNQPFVFSLGTGEVIKGWDQGLLGMCLGEKRKLVIPSELGYGERGWPPKIPGGATLVFEVELLKIER
modifications: Description of sequence: FKBP13-AcGFP-mCherry Fusion; Construct Name: FKBP-129; FKBP13 DRD in Construct : FKBP13 (mutated to match FKBP12 active site Q72R Q84E A117W) (DRD E98L)
B12: FKBP-132: FKBP13 DRD Q72R, Q84E, A117W, G92Y; SEQ ID NO: 82 (protein)
chain: HCPIKSRKGDVLHMHYTGKLEDGTEFDSSLPRNQPFVFSLGTGEVIKGWDQYLLGMCEGEKRKLVIPSELGYGERGWPPKIPGGATLVFEVELLKIER
modifications: Description of sequence: FKBP13-AcGFP-mCherry Fusion; Construct Name: FKBP-132; FKBP13 DRD in Construct : FKBP13 (mutated to match FKBP12 active site Q72R Q84E A117W) (DRD G92Y)
B13: FKBP-131: FKBP13 DRD Q72R, Q84E, A117W, T126C; SEQ ID NO: 81 (protein)
chain: HCPIKSRKGDVLHMHYTGKLEDGTEFDSSLPRNQPFVFSLGTGEVIKGWDQGLLGMCEGEKRKLVIPSELGYGERGWPPKIPGGACLVFEVELLKIER
modifications: Description of sequence: FKBP13-AcGFP-mCherry Fusion; Construct Name: FKBP-131; FKBP13 DRD in Construct : FKBP13 (mutated to match FKBP12 active site Q72R Q84E A117W) (DRD T126C)
B14: FKBP-134: FKBP13 DRD Q72R, Q84E, A117W, H41R; SEQ ID NO: 84 (protein)
chain: RCPIKSRKGDVLHMHYTGKLEDGTEFDSSLPRNQPFVFSLGTGEVIKGWDQGLLGMCEGEKRKLVIPSELGYGERGWPPKIPGGATLVFEVELLKIER
modifications: Description of sequence: FKBP13-AcGFP-mCherry Fusion; Construct Name: FKBP-134; FKBP13 DRD in Construct : FKBP13 (mutated to match FKBP12 active site Q72R Q84E A117W) (DRD H41R)

The values below come from patent publication US20250186614A1, “COMPACT DRUG RESPONSIVE DOMAINS FOR REGULATION OF FUNCTION/ABUNDANCE AND DELIVERY OF POLYPEPTIDE PAYLOADS” (OBSIDIAN THERAPEUTICS, INC., priority 2022, published 2025).

The assay relates to Jurkat cells. Kind of assay: Tacrolimus dose response of FKBP13-AcGFP-mCherry constructs stably transduced into Jurkat cells, GFP MFI by flow cytometry. The format is cell-based. Particulars: tacrolimus, Jurkat cells stably transduced; Table 6. The protocol: The regulation of AcGFP, from FKBP13-AcGFP-mCherry constructs, in Jurkat cells, was also studied. Jurkat Clone E6-1 cells were cultured in standard media (RPMI+GlutaMAX Supplement (Life Technologies, Carlsbad, CA Cat #61870127), Fetal Bovine Serum (FBS) (Life Technologies Cat #10-082-147)). Jurkat cells were transduced with lentivirus produced with each of FKBP-039, FKBP-040, FKBP-041, FKBP-042, FKBP-043, FKBP-044, or FKBP-045 constructs. Jurkat cells were transduced until they were 10-25% positive, as determined on day 5 post-transduction, by using mCherry as a transduction marker. […] The Geometric Mean Fluorescent Intensity (MFI) of GFP expression in mCherry+ cells was plotted and dose response curve fits were performed using Prism Software (San Diego, CA).
FKBP-091 was used as a comparative construct.
FIGS. 22-38 show the results of characterization of FKBP-160-292. […] FKBP-091 and FKBP-117 was used as a comparative control for FKBP-160-FKBP-255. FKBP-195 was used as a comparative control for FKBP-256-FKBP-275. FKBP-117, FPBP-195 and FKBP-251 were used as a comparative control for FKBP-276-FKBP-292.
FKBP mutants were cloned in a manner to make a fusion protein with AcGFP in order to assess FKBP mutant regulation by using AcGFP expression as a readout. […] Further iterative FKBP mutants (FKBP-256-FKBP-292) were constructed from these initial combinatorial mutants to see if we could further improve FKBP DRD properties.
For the molecule B1, the “Fold Change” value is 29.07.

In the case of B2, the “Fold Change” value is listed as 45.79.

Take B3: the “Fold Change” value amounted to 31.75.

Regarding B4, the “Fold Change” value came out at 25.52.

B5: the “Fold Change” value was 19.11.

In the case of B6, the “Fold Change” value is on record as 22.46.

For B7, the “Fold Change” value was found to be 14.40.

B8: the “Fold Change” value is reported as 10.25.

With B9, the “Fold Change” value is listed as 25.70.

In the case of B10, the “Fold Change” value came out at 10.43.

B11: the “Fold Change” value was 17.11.

In the case of B12, the “Fold Change” value was 16.27.

In the case of B13, the “Fold Change” value was 21.30.

For B14, the “Fold Change” value was 15.64.
